Data reported in US20220184120A1 (MINERVA BIOTECHNOLOGIES, published 2022).
Substitutions are numbered along the chain they refer to.

T1: N+9/C-9 peptide (9 amino acids added onto the N-terminus and 9 deleted from the C-terminus of PSMGFR)
T1 peptide: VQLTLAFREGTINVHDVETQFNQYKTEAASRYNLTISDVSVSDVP

T2: C-10 peptide (PSMGFR minus 10 amino acids from the C-terminus)
T2 construct: also called C-10 PSMGFR; PSMGFR C-10
T2 peptide: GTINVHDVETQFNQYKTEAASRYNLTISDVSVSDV

T3: NME7-AB (recombinant) (Homo sapiens (Human), UniProt Q9Y5B8 92-376)
T3 construct: the entry ends in a His tag; also called NM23-H7
T3 sequence: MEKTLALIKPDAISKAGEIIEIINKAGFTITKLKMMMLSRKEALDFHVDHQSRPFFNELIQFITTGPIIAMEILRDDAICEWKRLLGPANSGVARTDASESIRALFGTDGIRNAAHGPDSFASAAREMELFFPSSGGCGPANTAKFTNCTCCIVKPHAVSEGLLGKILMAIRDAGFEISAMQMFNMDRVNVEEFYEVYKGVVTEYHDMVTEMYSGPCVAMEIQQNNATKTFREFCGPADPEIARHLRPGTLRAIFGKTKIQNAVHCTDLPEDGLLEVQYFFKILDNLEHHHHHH

T4: N+20/C-27 peptide (20 amino acids added onto the N-terminus and 27 deleted from the C-terminus of PSMGFR)
T4 peptide: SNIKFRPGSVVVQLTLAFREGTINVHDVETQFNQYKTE

T5: N-10/C-5 peptide
T5 peptide: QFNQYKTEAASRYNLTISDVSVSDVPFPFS

T6: N-19 peptide
T6 peptide: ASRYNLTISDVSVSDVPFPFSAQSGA

T7: N-30 peptide
T7 peptide: SVSDVPFPFSAQSGA

T8: N-26 peptide
T8 peptide: ISDVSVSDVPFPFSAQSGA

T9: N-19/C-5 peptide
T9 peptide: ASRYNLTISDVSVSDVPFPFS

B1: 20A10 mouse monoclonal antibody (antibody, V domains shown)
VH: EVMLVESGGGLVKPGGSLKLSCAASGFTFSTYAMSWIRQTPEKRLEWVASIGRAGSTYYSDSVKGRFTISRDNVRNILYLQMSSLRSEDTAMYYCARGPIYNDYDEFAYWGQGTLVTVSA
VL: NIMMTQSPSSLAVSAGEKVTMSCKSSQSVLYSSNQKNYLAWYQQKPGQSPKLLIYWASTRESGVPDRFTGSGSGTDFTLTISSVQAEDLAVYYCHQYLSSLTFGAGTKLELK
notes: raised against PSMGFR; also called MN-20A10; anti-PSMGFR antibody 20A10
B2: PSMGFR peptide (Primary Sequence of the MUC1 Growth Factor Receptor) (peptide)
peptide: GTINVHDVETQFNQYKTEAASRYNLTISDVSVSDVPFPFSAQSGA
notes: synthetic peptide immobilised on ELISA plates; also called MUC1* peptide; MUC1* extra cellular domain peptide
B3: N-10 peptide (PSMGFR minus 10 amino acids from the N-terminus) (peptide)
peptide: QFNQYKTEAASRYNLTISDVSVSDVPFPFSAQSGA
notes: also called N-10 PSMGFR; PSMGFR N-10
B4: MN-C2 mouse monoclonal anti-MUC1* antibody (antibody, V domains shown)
VH: EVQLEESGGGLVKPGGSLKLSCAASGFTFSGYAMSWVRQTPEKRLEWVATISSGGTYIYYPDSVKGRFTISRDNAKNTLYLQMSSLRSEDTAMYYCARLGGDNYYEYFDVWGAGTTVTVSS
VL: DIVITQSTASLGVSLGQRATISCRASKSVSTSGYSYMHWYQQRPGQPPKLLIYLASNLESGVPARFSGSGSGTDFTLNIHPVEEEDAATYYCQHSRELPFTFGGGTKLEIKR
notes: mouse monoclonal raised against PSMGFR; also called Min-C2
B5: MN-C3 mouse monoclonal anti-MUC1* antibody (antibody, V domains shown)
VH: QVQLQQSGPELVRPGVSVKISCKGSGYRFTDYAMNWVKQSHAKSLEWIGVISTFSGNTNFNQKFKGKATMTVDKSSSTAYMELARLTSEDSAMYYCARSDYYGPYFDYWGQGTTLTVSS
VL: DVLMTQTPLSLPVSLGDQASISCRSSQTIVHSNGNTYLEWYLQKPGQSPKLLIYKVSNRFSGVPDRFSGSGSGTDFTLKINRVEAEDLGVYYCFQGSHVPFTFGSGTKLEIK
notes: mouse monoclonal raised against PSMGFR; also called Min-C3
B6: 17H6 mouse monoclonal antibody (antibody, V domains shown)
VH: EVKLVESGGGLVQPGGSLRLSCATSGFTFTDYYMSWVRQPPRKALEWLGFIRNKANGYTAEYSASVKGRFTISRDVSQNLLYLQMNILRAEDSATYYCAKDYYGSNPAWFAYWGQGTLVTVSA
VL: B5 VL with V2I, T28S, N33S, Y37F, T74I, N81S
notes: raised against N+9/C-9; also called N+9/C-9 antibody 17H6
B7: 18B4 mouse monoclonal antibody (antibody, V domains shown)
VH: EVKLEESGGGLVQPGGSMKLSCAASGFTFNDAWMDWVRQSPEKGLEWVAEIRSTANIHTTYYAESVQGRFTISRDDSKSSVYLQMNSLRAEDTGIYYCTPLLYGFAYWGQGTLVTVSA
VL: DVVMTQSPLSLPVSLGDQASISCRTSQSLVHSNGNTYLHWHLQKPGQSPKVLIYKVSSRFSGVPDRFSGSGSGTDFTLKISRVEAEDLGVYFCSQNTHVPYTFGGGTKLEIK
notes: raised against PSMGFR; also called anti-PSMGFR antibody 18B4

Tests used:
[1] = molecular target: B2; assay: ELISA
[2] = molecular target: B3; assay: ELISA
[3] = molecular target: T1, N+9/C-9 peptide (9 amino acids added …); assay: ELISA (FIG. 64A)
[4] = molecular target: T2, C-10 peptide (PSMGFR minus 10 amino …); assay: ELISA (FIG. 64A)
[5] = molecular target: T3, NME7-AB (recombinant); assay: ELISA (FIG. 2A)
Experimental: (§1) FIGS. 2A-2I show results of ELISA assays. MUC1* peptides PSMGFR, PSMGFR minus 10 amino acids from the N-terminus aka N−10, or PSMGFR minus 10 amino acids from the C-terminus, aka C−10 are immobilized on the plate and the following are assayed for binding: NME7-AB (FIG. 2A), MN-C2 monoclonal antibody (FIG. 2B), MN-E6 monoclonal antibody (FIG. 2C), or dimeric NME1 (FIG. 2D). […] MUC1* peptides PSMGFR minus 10 amino acids from the N-terminus aka N−10, or PSMGFR minus 10 amino acids from the C-terminus, aka C−10, are immobilized on the plate and the following are assayed for binding: MN-C3 (FIG. 2E) and MN-C8 (FIG. 2F).

[6] = molecular target: T3, NME7-AB (recombinant); assay: ELISA (FIG. 2A-2D)
Experimental: as §1

[7] = molecular target: T4, N+20/C-27 peptide (20 amino acids added …); assay: ELISA (FIG. 63)
Experimental: (§2) ELISA assays were performed to determine if, in addition to recognizing their immunizing peptide, they recognized PSMGFR, N−10 or C−10. In addition, they were tested for their ability to bind to N+20/C−27, N+9/C−9. We first did the ELISA assay on our set of reference antibodies, MNC2, MNE6, which we know are cancer-specific plus MNC3, which we know recognizes stem cells and progenitor cells (FIG. 63A-63B). None of the reference antibodies bound to the N+20/C−27 peptide. MNC2 and MNE6 cannot bind to PSMGFR peptides with 27, 10 or 9 C-terminal deletions, however, MNC3 binds to C−10 and to N+9/C−9 peptides.

[8] = molecular target: B3; assay: ELISA (FIG. 2B-2C)
[9] = molecular target: B2; assay: ELISA (FIG. 2B)
[10] = molecular target: T1, N+9/C-9 peptide (9 amino acids added …); assay: ELISA (FIG. 63)
Experimental: as §2

[11] = molecular target: B3; assay: Table 4 criterion 1, Binds N-10
[12] = molecular target: T2, C-10 peptide (PSMGFR minus 10 amino …); assay: ELISA (FIG. 2E)
Experimental: as §1

[13] = molecular target: B2; assay: ELISA (FIG. 9)
[14] = molecular target: T5, N-10/C-5 peptide; assay: ELISA (FIG. 69)
Experimental: (§3) In order to further refine the epitopes to which each antibody binds, a series of smaller peptides derived from the PSMGFR sequence were synthesized: N−30 (SEQ ID NO:7), N−26 (SEQ ID NO:6), N−19 (SEQ ID NO:4), N−10/C−5 (SEQ ID NO:8), N−19/C−5 (SEQ ID NO:9). Each of the antibodies was tested in an ELISA assay for their ability to bind to this refined set of peptides, plus PSMGFR, N−10 and C−10 peptides (FIG. 67-69).

[15] = molecular target: B3; assay: ELISA (FIG. 69)
Experimental: as §3

[16] = molecular target: T6, N-19 peptide; assay: ELISA (FIG. 69)
Experimental: as §3

[17] = molecular target: T7, N-30 peptide; assay: ELISA (FIG. 69)
Experimental: as §3

[18] = molecular target: T8, N-26 peptide; assay: ELISA (FIG. 69)
Experimental: as §3

[19] = molecular target: T9, N-19/C-5 peptide; assay: ELISA (FIG. 69)
Experimental: as §3

[20] = molecular target: T2, C-10 peptide (PSMGFR minus 10 amino …); assay: ELISA
[21] = molecular target: T4, N+20/C-27 peptide (20 amino acids added …); assay: ELISA (FIG. 64A)

## B1
[1]
  binding result: binds
[2]
  binding result: binds
[3]
  binding result: no binding
[4]
  binding result: no binding

## B2
[5]
  binding result: binds

## B3
[6]
  binding result: binds

## B4
[7]
  binding result: no binding
[8]
  binding result: binds
[9]
  binding result: binds
[3]
  binding result: no binding
[4]
  binding result: no binding

## B5
[7]
  binding result: no binding
[10]
  binding result: binds
[11]
  binding result: binds
[12]
  binding result: binds
[13]
  binding result: binds

## B6
[14]
  binding result: no binding
[15]
  binding result: no binding
[16]
  binding result: no binding
[17]
  binding result: no binding
[18]
  binding result: no binding
[19]
  binding result: no binding

## B7
[1]
  binding result: binds
[2]
  binding result: no binding
[20]
  binding result: binds
[21]
  binding result: binds
[3]
  binding result: binds
